P.E. binding ELISA OD and OD (PE binding ELISA) data for twelve molecules are collected here from US20240409645A1.

The chains are these.
T1: mouse IL-2Rβ (mouse) (UniProt P16297)
T1 sequence (looked up): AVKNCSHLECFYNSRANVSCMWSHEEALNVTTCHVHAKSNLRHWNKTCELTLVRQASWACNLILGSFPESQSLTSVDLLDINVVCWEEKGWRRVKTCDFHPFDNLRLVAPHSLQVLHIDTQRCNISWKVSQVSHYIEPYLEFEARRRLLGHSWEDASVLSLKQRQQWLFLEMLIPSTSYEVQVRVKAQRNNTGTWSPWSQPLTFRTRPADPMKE

T2: mouse IL-2Rγ (mouse) (UniProt P34902)
T2 sequence (looked up): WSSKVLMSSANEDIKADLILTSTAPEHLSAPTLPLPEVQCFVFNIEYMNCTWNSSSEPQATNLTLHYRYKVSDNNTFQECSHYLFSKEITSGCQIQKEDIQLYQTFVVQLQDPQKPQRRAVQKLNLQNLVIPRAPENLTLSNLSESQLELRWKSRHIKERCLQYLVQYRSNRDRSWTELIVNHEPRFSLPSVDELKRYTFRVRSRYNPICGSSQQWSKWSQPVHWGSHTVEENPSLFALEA

B1: FJ1427_P035MP03E11 (VHH)
VHH: EVQLVESGGGLVQAGGSLRLSCVVSGDVFVRYTMAWFRQAPGKEREFVAAVTDSGRTTEYVDSVKGRFTVSRDNAKNTVYLQMNNLEPEDTAVYYCAANTDYFQIRSVDNNAWGQGTQVTVSS
B2: FJ1427 P035MP03B12 (VHH)
VHH: EVQLVESGGGLVQAGGSLRLSCAASGDVFVRYTMAWFRQAPGKEREFVAAVTDSGRTADYVDSVKGRFTVSRDNAKNTVYLQMNNLKPEDTAVYYCAANTDYFQIRSLDRNTWGQGTQVTVSS
B3: FJ1427_P035MP06B02 (VHH)
VHH: QVQLVESGGGLVQAGGSLRLSCVVSGDVFVRYTMAWFRQAPGKEREFVAAVTDSGRTTEYVDSVKGRFTVSRDNAKNTVYLQMNNLKPEDTAVYYCAANTDYFQIRSVDNNAWGQGTQVTVSS
B4: FJ1427 P035MP03C12 (VHH)
VHH: QVQLVESGGGLVQAGGSLRLSCAASGRAFSTYSMGWFRQTPGKEREFVAIISESGGIIDYGDSVKGRFTLSRDNAKNTVSLQMSSLQPEDTAVYYCAAARDWFARTAYQYDYWGQGTQVTVSA
B5: FJ1427 P035MP06G01 (VHH)
VHH: EVQLVESGGGLVQAGDSLRLSCVVSGRGFSTYTMGWFRQAPGKEREFVAAITWSTGRTSYADSVKGRFTISRENAENTVYLQMNSLELEDTAVYYCATDQVLWTTRPRDMRYWGQGTQVTVSF
B6: FJ1427 P035MP03D11 (VHH)
VHH: QVQLVESGGGLVQAGGSLRLSCAASGRTFSTTDVGWFRQAPGKEREFVAAITWSSHSTLYADSVEGRFTVTRENAKNTVYLQMNSLKPEDTAVYYCAAVRRGWAVVRTEGAYDFWGQGTQVTVSA
B7: FJ1427 P035MP03F11 (VHH)
VHH: QVQLVESGGGLAQAGGSLRLSCAASGRTFSQDAKAWFRQAPGKEREFVAAITWSGRDTDYADSVKGRFTIARDNAKNTVYLQMDSLKPEDTAVYYCAVYPQGTIGPYFRSSNHYDYWGQGTQVTVSS
B8: 27-MP04G01 (VHH)
VHH: QVQLVESGGGLVQAGGSLTLSCAAPGRTFGTDVVGWFRQAPGKEREFVASISRSGDGIYYDDSVKGRFTISRNNAWNTVNLQMNSLKVEDTAVYYCAAGDGWSTYDYWGQGTQVTVSS
B9: 29-MP04H02 (VHH)
VHH: QVQLVESGGGLVQAGGSLRLACVASGLTFDNYYMGWFRQAPGKEREFVAGIIWNGDHTAYADSIKGRFTISRDNAKNTAYLRMNSLKPEDTAVYYCAATFWIERATTPDIGQYAYWGQGTQVTVSS
B10: 32-MP04A08 (VHH)
VHH: QVQLVESGGGLVQAGGSLRLSCAASGRTFGSTAVGWFRQVPGKEREFVSAINRSGSATTYADSVKGRFTISRDNAKNTVYLQMNSLTPEDTGVYYCAADSLPYGRPYYFQRSAGEYDYWGQGTQVTVSS
B11: 33-MP04C09 (VHH)
VHH: QLQLVESGGGLVQAGGSLRLSCAASGPTFSRVAVGWFRQAPGKEREFVAAVNRPATMTKYADSVKGRFTVSRDNAKNTVDLQMNSMKPEDTAVYYCAADSVPYGRPYYWQTSAGDYDYWGQGTQVTVSS
B12: 30-MP04C03 (VHH)
VHH: EVQLVESGGGWVQDGGSLRLSCALSGRTFVRGIMGWFRQAPGKEREFVARIIWHINSTRYADSVKGRFTISRDSAKNTMYLQMDSLRPEDTAVYYCAARDRYGSGNSLSPSAYDYWGQGTQVTVSS

In one assay the target is T1, mouse IL-2Rβ (mouse). The assay is described as follows: P.E. binding ELISA on coated protein. In general terms: An ELISA detects its analyte on a solid surface through an enzyme-linked reagent.
Take B1: the P.E. binding ELISA OD turned out to be 0.05 OD450 nm.
Still for that read-out and setting: as for B2, the figure is 0.049 OD450 nm.
Still for that read-out and setting: as for B3, the figure is 0.048 OD450 nm; as for B4, 0.047 OD450 nm.
On to B5, for which the P.E. binding ELISA OD was 0.049 OD450 nm.
Still for that read-out and setting: as for B6, the figure is 0.049 OD450 nm; as for B7, 0.048 OD450 nm.

In a further assay the target is T2, mouse IL-2Rγ (mouse). The assay is described as follows: PE binding ELISA, periplasmic extract on coated protein.
B8: the OD (PE binding ELISA) worked out at 0.048 OD450 nm.
Same read-out and setting: as for B9, the figure is 0.05 OD450 nm.
Same read-out and setting: with B10 the figure was 0.05 OD450 nm; with B11, 0.047 OD450 nm.
Still for that read-out and setting: as for B12, the figure is 0.048 OD450 nm.
